Laboratory results taken from PMC11289882, “Site-directed allostery perturbation to probe the negative regulation of hypoxia inducible factor-1α” (RSC Chemical Biology, 2024).

Key:
[1] = biological target: CITED2 218-256 218-256 (Homo sapiens) (UniProt Q99967); assay: ITC
[2] = biological target: CITED2ΔN 224-256 (Homo sapiens) (UniProt Q99967); assay: ITC
[3] = biological target: Flu-HIF-1α 786-826 (Homo sapiens) (UniProt Q16665); assay: anisotropy
[4] = biological target: CITED2 218-256 218-256 (Homo sapiens) (UniProt Q99967); assay: fluorescence anisotropy competition
[5] = biological target: CITED2ΔN 224-256 (Homo sapiens) (UniProt Q99967); assay: fluorescence anisotropy competition

p300 TAZ1 330-420, Q09472, sequence (Q09472 330-420): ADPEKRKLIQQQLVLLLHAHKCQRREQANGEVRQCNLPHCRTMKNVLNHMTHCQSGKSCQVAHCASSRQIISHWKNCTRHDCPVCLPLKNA
CITED2 218-256 218-256 (Homo sapiens), sequence (Q99967 218-256): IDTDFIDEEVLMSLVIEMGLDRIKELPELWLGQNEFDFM
CITED2ΔN 224-256 (Homo sapiens), sequence (Q99967 224-256, stated change not applied): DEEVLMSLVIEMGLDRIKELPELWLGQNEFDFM
Flu-HIF-1α 786-826 (Homo sapiens), sequence (Q16665 786-826): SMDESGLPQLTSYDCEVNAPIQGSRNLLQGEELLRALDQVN

## p300 TAZ1 330-420, Q09472
[1]
  Kd: 10.6 nM
[2]
  Kd: 50.5 nM
[3]
  Kd: 64 nM
[4]
  Kd: 2 nM
[5]
  Kd: 86 nM
